Test results taken from US20240010749A1.

How the values were obtained:
[1] = target: human CEACAM5 expressed on cancer cell lines (MKN-45, NCI-H441, SNU-16, SK-CO-1, LS174T) (human) (UniProt P06731); assay: flow cytometry, MKN-45 cells, 10 µg/mL antibody
[2] = target: human CEACAM5 expressed on cancer cell lines (MKN-45, NCI-H441, SNU-16, SK-CO-1, LS174T) (human) (UniProt P06731); assay: flow cytometry, NCI-H441 cells, 10 µg/mL antibody

Sequence of human CEACAM5 expressed on cancer cell lines (MKN-45, NCI-H441, SNU-16, SK-CO-1, LS174T) (human) (P06731 35-685): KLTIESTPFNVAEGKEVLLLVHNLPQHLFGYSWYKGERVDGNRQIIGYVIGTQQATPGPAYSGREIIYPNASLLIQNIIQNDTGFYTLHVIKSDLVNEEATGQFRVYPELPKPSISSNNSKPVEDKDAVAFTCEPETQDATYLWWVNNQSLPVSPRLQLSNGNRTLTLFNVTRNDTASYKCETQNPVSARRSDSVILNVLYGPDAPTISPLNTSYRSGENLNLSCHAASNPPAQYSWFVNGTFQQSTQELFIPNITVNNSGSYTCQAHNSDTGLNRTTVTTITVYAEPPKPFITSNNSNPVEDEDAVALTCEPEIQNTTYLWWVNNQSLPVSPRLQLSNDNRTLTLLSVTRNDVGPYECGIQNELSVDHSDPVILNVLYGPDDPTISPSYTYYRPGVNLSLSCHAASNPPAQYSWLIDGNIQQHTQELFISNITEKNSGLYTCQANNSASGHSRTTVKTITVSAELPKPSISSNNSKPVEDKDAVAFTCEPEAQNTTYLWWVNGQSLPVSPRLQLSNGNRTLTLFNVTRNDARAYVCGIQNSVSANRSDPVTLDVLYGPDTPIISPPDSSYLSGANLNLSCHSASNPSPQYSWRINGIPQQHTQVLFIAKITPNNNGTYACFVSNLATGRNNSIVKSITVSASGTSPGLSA

mouse monoclonal anti-CEACAM5 antibody Agilent Dako #M7072 clone II7
quotient of MFI of antibody divided by MFI of secondary antibody only control [1]: 3.8 | quotient of MFI of antibody divided by MFI of secondary antibody only control [2]: 1.1
